T1: PPR10 ND variant (maize, UniProt B8Y6I0 96-786, N349D)
T1 sequence: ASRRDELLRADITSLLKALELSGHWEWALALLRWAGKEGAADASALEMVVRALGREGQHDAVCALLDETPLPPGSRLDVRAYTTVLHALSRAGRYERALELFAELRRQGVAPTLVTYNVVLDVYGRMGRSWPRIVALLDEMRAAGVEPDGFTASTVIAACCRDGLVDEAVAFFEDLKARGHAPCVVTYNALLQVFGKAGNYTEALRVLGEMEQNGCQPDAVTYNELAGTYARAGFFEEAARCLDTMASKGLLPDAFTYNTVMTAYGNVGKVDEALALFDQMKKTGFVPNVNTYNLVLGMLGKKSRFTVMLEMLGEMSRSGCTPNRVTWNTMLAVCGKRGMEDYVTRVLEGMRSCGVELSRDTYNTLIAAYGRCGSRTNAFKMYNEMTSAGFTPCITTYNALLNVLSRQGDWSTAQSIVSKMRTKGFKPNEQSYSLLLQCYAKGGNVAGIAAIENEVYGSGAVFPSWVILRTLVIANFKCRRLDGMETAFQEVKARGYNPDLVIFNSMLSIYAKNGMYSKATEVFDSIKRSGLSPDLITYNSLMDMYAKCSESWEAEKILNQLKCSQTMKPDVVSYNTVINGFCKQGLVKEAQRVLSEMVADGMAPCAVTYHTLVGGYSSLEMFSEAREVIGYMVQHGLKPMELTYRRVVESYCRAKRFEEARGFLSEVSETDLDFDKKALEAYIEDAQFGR

T2: PPR10 NS variant (maize, UniProt B8Y6I0 96-786, D314S;N349S)
T2 sequence: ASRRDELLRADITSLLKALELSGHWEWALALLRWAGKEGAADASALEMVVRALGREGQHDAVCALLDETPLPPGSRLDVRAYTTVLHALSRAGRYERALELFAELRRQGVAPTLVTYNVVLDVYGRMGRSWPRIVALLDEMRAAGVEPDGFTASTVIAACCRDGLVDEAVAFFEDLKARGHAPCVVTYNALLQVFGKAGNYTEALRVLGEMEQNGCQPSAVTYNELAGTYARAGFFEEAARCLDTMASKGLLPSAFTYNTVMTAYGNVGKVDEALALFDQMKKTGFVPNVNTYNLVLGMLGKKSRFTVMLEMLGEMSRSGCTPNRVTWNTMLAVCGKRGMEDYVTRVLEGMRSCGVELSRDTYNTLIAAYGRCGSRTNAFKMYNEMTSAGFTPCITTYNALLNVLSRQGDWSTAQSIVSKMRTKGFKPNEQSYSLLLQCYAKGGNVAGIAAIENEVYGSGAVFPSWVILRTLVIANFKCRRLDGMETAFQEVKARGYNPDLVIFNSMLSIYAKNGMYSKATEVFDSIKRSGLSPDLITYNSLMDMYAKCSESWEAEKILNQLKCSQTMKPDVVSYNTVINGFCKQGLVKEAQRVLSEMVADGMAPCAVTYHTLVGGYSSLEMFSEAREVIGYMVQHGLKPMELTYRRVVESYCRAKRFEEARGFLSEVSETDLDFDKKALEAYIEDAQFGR

T3: PPR10 NN variant (maize, UniProt B8Y6I0 96-786, D314N)
T3 sequence: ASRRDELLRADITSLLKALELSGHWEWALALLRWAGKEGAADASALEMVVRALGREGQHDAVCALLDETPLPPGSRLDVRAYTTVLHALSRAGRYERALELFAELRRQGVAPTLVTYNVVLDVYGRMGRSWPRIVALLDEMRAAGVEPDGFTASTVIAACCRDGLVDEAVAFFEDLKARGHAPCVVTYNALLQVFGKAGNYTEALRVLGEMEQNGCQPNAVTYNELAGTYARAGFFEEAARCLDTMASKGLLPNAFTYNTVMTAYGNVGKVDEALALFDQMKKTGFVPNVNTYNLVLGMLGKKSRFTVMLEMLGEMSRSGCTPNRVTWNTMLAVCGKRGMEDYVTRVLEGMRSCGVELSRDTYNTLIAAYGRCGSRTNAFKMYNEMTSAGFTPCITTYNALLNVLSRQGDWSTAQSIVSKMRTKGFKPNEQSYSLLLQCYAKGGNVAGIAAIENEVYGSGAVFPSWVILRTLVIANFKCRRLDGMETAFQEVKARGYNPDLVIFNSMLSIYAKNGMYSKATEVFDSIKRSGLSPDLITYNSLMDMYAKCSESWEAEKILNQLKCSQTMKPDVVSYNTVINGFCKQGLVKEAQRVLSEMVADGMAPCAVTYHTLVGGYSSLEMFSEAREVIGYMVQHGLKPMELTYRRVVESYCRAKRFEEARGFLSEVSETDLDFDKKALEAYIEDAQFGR

T4: rPPR10 wild-type (maize, UniProt B8Y6I0 96-786)
T4 sequence: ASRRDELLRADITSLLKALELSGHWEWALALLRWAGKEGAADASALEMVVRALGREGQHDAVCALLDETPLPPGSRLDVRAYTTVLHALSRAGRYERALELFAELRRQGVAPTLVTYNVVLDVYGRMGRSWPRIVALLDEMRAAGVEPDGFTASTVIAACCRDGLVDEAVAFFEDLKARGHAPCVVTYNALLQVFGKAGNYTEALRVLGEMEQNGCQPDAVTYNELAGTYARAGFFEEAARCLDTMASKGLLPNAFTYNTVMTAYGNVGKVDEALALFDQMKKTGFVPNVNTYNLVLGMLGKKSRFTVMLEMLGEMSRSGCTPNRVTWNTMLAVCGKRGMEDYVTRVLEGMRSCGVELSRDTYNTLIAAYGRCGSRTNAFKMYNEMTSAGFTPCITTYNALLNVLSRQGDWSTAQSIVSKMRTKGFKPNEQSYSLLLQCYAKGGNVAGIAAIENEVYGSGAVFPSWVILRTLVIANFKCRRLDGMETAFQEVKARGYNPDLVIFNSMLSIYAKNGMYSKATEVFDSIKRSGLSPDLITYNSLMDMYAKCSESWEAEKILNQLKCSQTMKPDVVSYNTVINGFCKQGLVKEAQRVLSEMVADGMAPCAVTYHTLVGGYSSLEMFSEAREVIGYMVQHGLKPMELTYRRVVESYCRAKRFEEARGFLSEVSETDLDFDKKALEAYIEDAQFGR


Legend:
PPR10 ND variant = target: T1, PPR10 ND variant; experiment: EMSA; EMSA: radiolabeled RNA 15 pM, protein 0, 5, 10, 20 nM; binding buffer and temperature by reference [12]; protein stock in 400 mM NaCl, 50 mM Tris-HCl pH 7.5, 5; conditions: protein: recombinant; tags: MBP fusion removed by TEV cleavage; label: radiolabeled; single-stranded
PPR10 NS variant = target: T2, PPR10 NS variant; experiment: as above; conditions: protein: recombinant; tags: MBP fusion removed by TEV cleavage; label: radiolabeled; single-stranded
PPR10 NN variant [1] = target: T3, PPR10 NN variant; experiment: EMSA; affinity similar to UU RNA; EMSA: radiolabeled RNA 15 pM, protein 0, 5, 10, 20 nM; binding buffer and temperature by reference [12]; protein stock in 400 mM NaCl, 50 mM Tris-HCl pH 7.5, 5; conditions: protein: recombinant; tags: MBP fusion removed by TEV cleavage; label: radiolabeled; single-stranded
PPR10 NN variant [2] = target: T3, PPR10 NN variant; experiment: EMSA; affinity similar to CC RNA; EMSA: radiolabeled RNA 15 pM, protein 0, 5, 10, 20 nM; binding buffer and temperature by reference [12]; protein stock in 400 mM NaCl, 50 mM Tris-HCl pH 7.5, 5; conditions: protein: recombinant; tags: MBP fusion removed by TEV cleavage; label: radiolabeled; single-stranded
rPPR10 wild-type = target: T4, rPPR10 wild-type; experiment: SV-AUC; 3 uM protein, 1.5 or 3 uM RNA; 1:1 monomer complex; EMSA: radiolabeled RNA 15 pM, protein 0, 5, 10, 20 nM; binding buffer and temperature by reference [12]; protein stock in 400 mM NaCl, 50 mM Tris-HCl pH 7.5, 5; conditions: protein: recombinant; tags: MBP fusion removed by TEV cleavage; single-stranded

Row | Binder | Kd (PPR10 ND variant) [nM] | Kd (PPR10 NS variant) [nM] | binding result (PPR10 NN variant [1]) | binding result (PPR10 NN variant [2]) | binding result (rPPR10 wild-type)
1 | GUACCCUUAACCAUUUC (ssRNA) [CC RNA] | 17 | 9 | binds |  | 
2 | GUAUUCUUAACCAUUUC (ssRNA) [UU RNA] | ~3 | 20 |  | binds | 
3 | GUAUCCUUAACCAUUUC (ssRNA) [PPR10 17-nt minimal RNA ligand] |  |  |  |  | binds

— PMC3420917, “A Combinatorial Amino Acid Code for RNA Recognition by Pentatricopeptide Repeat Proteins” (PLoS Genetics, 2012)
